Results taken from publication PMC8584306, “Characterization of Novel Pathogenic Variants Causing Pyridox(am)ine 5′-Phosphate Oxidase-Dependent Epilepsy” (International Journal of Molecular Sciences, 2021).

T1: pyridox(am)ine 5′-phosphate oxidase (PNPO) (Homo sapiens, UniProt Q9NVS9)
T1 construct: homodimer with FMN
T1 sequence (Q9NVS9 1-261): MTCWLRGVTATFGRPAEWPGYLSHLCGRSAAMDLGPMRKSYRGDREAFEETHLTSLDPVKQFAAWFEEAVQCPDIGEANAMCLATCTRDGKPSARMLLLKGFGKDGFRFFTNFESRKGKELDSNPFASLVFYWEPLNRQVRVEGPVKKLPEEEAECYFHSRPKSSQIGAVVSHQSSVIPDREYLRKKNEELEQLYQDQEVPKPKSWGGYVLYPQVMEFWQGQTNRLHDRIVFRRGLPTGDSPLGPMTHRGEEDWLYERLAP


Legend:
[1] = target: T1, pyridox(am)ine 5′-phosphate oxidase (PNPO); assay: differential scanning fluorimetry; assay type: binding; conditions: equimolar FMN added to 2 µM purified enzyme (already FMN-bound); range given for all PNPO forms
From the text: differential scanning fluorimetry on pyridox(am)ine 5′-phosphate oxidase (PNPO) | equimolar amount of FMN stabilizes all the PNPO forms by increasing the Tm

[2] = target: the molecule itself; assay: SEC; gel filtration on a Superdex 200 10/300 GL column, as described previously [20]; elution profiles compared with the wild type

Molecule	increase in Tm [1]	stoichiometry N [2]
Cc1cc2nc3c(=O)[nH]c(=O)nc-3n(C[C@H](O)[C@H](O)[C@H](O)COP(=O)(O)O)c2cc1C [FMN]	2–3 °C	–
pyridox(am)ine 5′-phosphate oxidase, wild type (enzyme, human, human pyridox(am)ine 5′-phosphate oxidase (PNPO), recombinant; The vector pET28-PNPO is named only for the variants; also called PNPO; WT; source: recombinant, purified by the protocol of [4]) MTCWLRGVTATFGRPAEWPGYLSHLCGRSAAMDLGPMRKSYRGDREAFEETHLTSLDPVKQFAAWFEEAVQCPDIGEANAMCLATCTRDGKPSARMLLLKGFGKDGFRFFTNFESRKGKELDSNPFASLVFYWEPLNRQVRVEGPVKKLPEEEAECYFHSRPKSSQIGAVVSHQSSVIPDREYLRKKNEELEQLYQDQEVPKPKSWGGYVLYPQVMEFWQGQTNRLHDRIVFRRGLPTGDSPLGPMTHRGEEDWLYERLAP	–	2
pyridox(am)ine 5′-phosphate oxidase R161C variant (enzyme, human, human PNPO, patient variant R161C made by site-directed mutagenesis in pET28-PNPO; also called PNPO R161C; source: E. coli Rosetta (DE3), purified as described in [4]) MTCWLRGVTATFGRPAEWPGYLSHLCGRSAAMDLGPMRKSYRGDREAFEETHLTSLDPVKQFAAWFEEAVQCPDIGEANAMCLATCTRDGKPSARMLLLKGFGKDGFRFFTNFESRKGKELDSNPFASLVFYWEPLNRQVRVEGPVKKLPEEEAECYFHSCPKSSQIGAVVSHQSSVIPDREYLRKKNEELEQLYQDQEVPKPKSWGGYVLYPQVMEFWQGQTNRLHDRIVFRRGLPTGDSPLGPMTHRGEEDWLYERLAP	–	2
pyridox(am)ine 5′-phosphate oxidase E50K variant (enzyme, human, human PNPO, natural variant E50K made by site-directed mutagenesis in pET28-PNPO; also called PNPO E50K; source: E. coli Rosetta (DE3), purified as described in [4]) MTCWLRGVTATFGRPAEWPGYLSHLCGRSAAMDLGPMRKSYRGDREAFEKTHLTSLDPVKQFAAWFEEAVQCPDIGEANAMCLATCTRDGKPSARMLLLKGFGKDGFRFFTNFESRKGKELDSNPFASLVFYWEPLNRQVRVEGPVKKLPEEEAECYFHSRPKSSQIGAVVSHQSSVIPDREYLRKKNEELEQLYQDQEVPKPKSWGGYVLYPQVMEFWQGQTNRLHDRIVFRRGLPTGDSPLGPMTHRGEEDWLYERLAP	–	2
pyridox(am)ine 5′-phosphate oxidase D33V variant (enzyme, human, human PNPO, patient variant D33V made by site-directed mutagenesis in pET28-PNPO; also called PNPO D33V; source: E. coli Rosetta (DE3), purified as described in [4]) MTCWLRGVTATFGRPAEWPGYLSHLCGRSAAMVLGPMRKSYRGDREAFEETHLTSLDPVKQFAAWFEEAVQCPDIGEANAMCLATCTRDGKPSARMLLLKGFGKDGFRFFTNFESRKGKELDSNPFASLVFYWEPLNRQVRVEGPVKKLPEEEAECYFHSRPKSSQIGAVVSHQSSVIPDREYLRKKNEELEQLYQDQEVPKPKSWGGYVLYPQVMEFWQGQTNRLHDRIVFRRGLPTGDSPLGPMTHRGEEDWLYERLAP	–	2
pyridox(am)ine 5′-phosphate oxidase P213S variant (enzyme, human, human PNPO, patient variant P213S made by site-directed mutagenesis in pET28-PNPO; also called PNPO P213S; source: E. coli Rosetta (DE3), purified as described in [4]) MTCWLRGVTATFGRPAEWPGYLSHLCGRSAAMDLGPMRKSYRGDREAFEETHLTSLDPVKQFAAWFEEAVQCPDIGEANAMCLATCTRDGKPSARMLLLKGFGKDGFRFFTNFESRKGKELDSNPFASLVFYWEPLNRQVRVEGPVKKLPEEEAECYFHSRPKSSQIGAVVSHQSSVIPDREYLRKKNEELEQLYQDQEVPKPKSWGGYVLYSQVMEFWQGQTNRLHDRIVFRRGLPTGDSPLGPMTHRGEEDWLYERLAP	–	2
